Data from patent US20140234213A1 (FOX CHASE CANCER CENTER, published 2014).

Target: T1, human Mullerian inhibiting substance Type II receptor (MISIIR) (human, UniProt Q16671 18-573)
T1 construct: whole, on cells; also called MIS type II receptor; AMHR2
T1 sequence (looked up): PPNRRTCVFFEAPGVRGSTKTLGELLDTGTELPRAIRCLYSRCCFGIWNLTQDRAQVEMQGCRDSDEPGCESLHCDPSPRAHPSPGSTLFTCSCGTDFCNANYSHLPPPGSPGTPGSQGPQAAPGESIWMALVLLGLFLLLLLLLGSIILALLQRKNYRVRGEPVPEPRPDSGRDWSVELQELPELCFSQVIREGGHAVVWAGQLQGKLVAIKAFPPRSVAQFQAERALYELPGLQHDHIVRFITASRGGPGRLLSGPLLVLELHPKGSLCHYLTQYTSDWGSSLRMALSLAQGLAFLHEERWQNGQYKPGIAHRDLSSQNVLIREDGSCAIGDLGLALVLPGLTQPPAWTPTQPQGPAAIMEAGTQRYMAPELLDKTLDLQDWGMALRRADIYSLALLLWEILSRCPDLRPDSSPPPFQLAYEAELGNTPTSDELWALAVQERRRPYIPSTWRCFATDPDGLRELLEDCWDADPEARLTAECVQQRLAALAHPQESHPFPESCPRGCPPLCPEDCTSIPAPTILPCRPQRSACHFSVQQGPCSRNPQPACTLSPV
Assay: inferred by the filing from the reporter gene assay (block of MIS-induced signaling); no direct binding assay
Procedure: FIG. 3 provides a schematic of a reporter gene assay to measure MISIIR signaling. The Tlx-2 (T-cell leukemia, homeobox 2) gene is a downstream target of BMP and MIS signaling (Tang et al. (1998) Development 125:1877-1887). Genes encoding mouse TLX2-luciferase and human MISIIR were stably transfected into P19 mouse neuroblastoma cells that normally lack MISIIR.
The ability of the new hybrid scFv molecules to block MIS binding to MISIIR was determined using a reporter gene assay in which signaling through MISIIR on the surface of […] cells triggers luminescence in the cells (FIG. 3). MIS was added to the cells in the presence or absence of the different scFv molecules and the resulting luminescence was measured (FIG. 4).

binding result: binds
B1: RAD-1-0003 (E3 1DQH3) scFv (scFv)
scFv: MAQVQLQQSGPGLVKPSQTLSLTCAISGDSVSSKSATWNWIRQSPSRGLEWLGRTYYRSKWYNDYAESVKSRITIKPDTTKNHFSLQLKSVTPEDTAVYYCASPPGGKLLISLSEERISAHHVPMDYWGQGTLVTVSSSASGAELGGGGSGGGGSGGGGSTSQAVLTQPSSASGTPGQRVTISCSGSSSNIGAGYDVHWYQQLPGTAPKLLIYGNSNRPSGVPDRFSGSKSGTSASLAITGLQAEDEADYYCQSYDSSLSAHNYVFGTGTKVTLLG
notes: Hybrid scFv on the E3 framework with the MIS loop in the heavy chain CDR3, in a different orientation than RAD-1-0001
